Article doi:10.1101/2020.07.24.212647 (bioRxiv, 2020)
Read-outs that look alike come from different tables or passages of the source.

Assays:
[1] = biological target: Corynebacterium mustelae E2p catalytic domain (CmE2p_CD) (Corynebacterium mustelae); assay: crystal structure
AUC [2] = biological target: the molecule itself; assay: AUC
AUC [3] = biological target: the molecule itself; assay: AUC; remark: listed apart in the source
crystal structure = biological target: the molecule itself; assay: crystal structure

Molecule: Corynebacterium mustelae E2p catalytic domain (CmE2p_CD) (domain or fragment)
- stoichiometry N [1]: 3

B1: M. tuberculosis E2b, full-length (MtE2b_FL) (enzyme)
chain: MSGEDSIRSFPVPDLGEGLQEVTVTCWSVAVGDDVEINQTLCSVETAKAEVEIPSPYAGRIVELGGAEGDVLKVGAELVRIDTGPTAVAQPNGEGAVPTLVGYGADTAIETSRRTSRPLAAPVVRKLAKELAVDLAALQRGSGAGGVITRADVLAAARGGVGAGPDVRPVHGVHARMAEKMTLSHKEIPTAKASVEVICAELLRLRDRFVSAAPEITPFALTLRLLVIALKHNVILNSTWVDSGEGPQVHVHRGVHLGFGAATERGLLVPVVTDAQDKNTRELASRVAELITGAREGTLTPAELRGSTFTVSNFGALGVDDGVPVINHPEAAILGLGAIKPRPVVVGGEVVARPTMTLTCVFDHRVVDGAQVAQFMCELRDLIESPETALLDL
- stoichiometry N (AUC [2]): 24

B2: C. glutamicum E2p, full-length (CgE2p_FL) (enzyme)
chain: MAFSVEMPELGESVTEGTITQWLKSVGDTVEVDEPLLEVSTDKVDTEIPSPVAGVILEIKAEEDDTVDVGGVIAIIGDADETPANEAPADEAPAPAEEEEPVKEEPKKEAAPEAPAATGAATDVEMPELGESVTEGTITQWLKAVGDTVEVDEPLLEVSTDKVDTEIPSPVAGTIVEILADEDDTVDVGAVIARIGDANAAAAPAEEEAAPAEEEEPVKEEPKKEAAPEAPAATGAATDVEMPELGESVTEGTITQWLKAVGDTVEVDEPLLEVSTDKVDTEIPSPVAGTIVEILADEDDTVDVGAVIARIGDANAAAAPAEEEAAPAEEEEPVKEEPKKEEPKKEEPKKEAATTPAAASATVSASGDNVPYVTPLVRKLAEKHGVDLNTVTGTGIGGRIRKQDVLAAANGEAAPAEAAAPVSAWSTKSVDPEKAKLRGTTQKVNRIREITAMKTVEALQISAQLTQLHEVDMTRVAELRKKNKPAFIEKHGVNLTYLPFFVKAVVEALVSHPNVNASFNAKTKEMTYHSSVNLSIAVDTPAGLLTPVIHDAQDLSIPEIAKAIVDLADRSRNNKLKPNDLSGGTFTITNIGSEGALSDTPILVPPQAGILGTGAIVKRPVVITEDGIDSIAIRQMVFLPLTYDHQVVDGADAGRFLTTIKDRLETANFEGDLQL
- stoichiometry N (AUC [3]): 3

B3: C. glutamicum E2p catalytic core and peripheral subunit binding domain (CgE2p-ΔLBDs) (domain or fragment)
chain: YVTPLVRKLAEKHGVDLNTVTGTGIGGRIRKQDVLAAANGEAAPAEAAAPVSAWSTKSVDPEKAKLRGTTQKVNRIREITAMKTVEALQISAQLTQLHEVDMTRVAELRKKNKPAFIEKHGVNLTYLPFFVKAVVEALVSHPNVNASFNAKTKEMTYHSSVNLSIAVDTPAGLLTPVIHDAQDLSIPEIAKAIVDLADRSRNNKLKPNDLSGGTFTITNIGSEGALSDTPILVPPQAGILGTGAIVKRPVVITEDGIDSIAIRQMVFLPLTYDHQVVDGADAGRFLTTIKDRLETANFEGDLQL
- binding result (crystal structure): binds

B4: C. glutamicum E2p catalytic domain (CgE2p_CD) (domain or fragment)
chain: LRGTTQKVNRIREITAMKTVEALQISAQLTQLHEVDMTRVAELRKKNKPAFIEKHGVNLTYLPFFVKAVVEALVSHPNVNASFNAKTKEMTYHSSVNLSIAVDTPAGLLTPVIHDAQDLSIPEIAKAIVDLADRSRNNKLKPNDLSGGTFTITNIGSEGALSDTPILVPPQAGILGTGAIVKRPVVITEDGIDSIAIRQMVFLPLTYDHQVVDGADAGRFLTTIKDRLETANFEGDLQL
- stoichiometry N (AUC [3]): 3
